Where no end group is shown, it is not given here.
Target: bovine collagen (Symatese), polymerized gel (bovine)
Experiment: retention on polymerized bovine collagen gel, antibody loaded at 10 µg/mL, released antibody measured by ELISA

B1: PlGF-2123-144-αPD-L1 (clone 10F.9G2) (antibody, part only; not given: anti-PD-L1 antibody, part only)
peptide: RRRPKGRGKRRREKQRPTDCHL
modifications: not fully specified (residue 20); also: antibody conjugate, average 6 peptides per antibody
For B1, which % of bound antibody released by plasmin digestion after buffer changes is on record?
Its % of bound antibody released by plasmin digestion after buffer changes is 47.1%.
